The target of experiment [1] is HA-tagged bovine pancreatic RNase N113S expressed in CHO cells (bovine) (UniProt P61823).
Experiment [2] has as its target HA-tagged bovine pancreatic RNase expressed in CHO cells (bovine) (UniProt P61823).

As for “HA-tagged bovine pancreatic RNase N113S expressed in CHO cells (from UniProt P61823 27-150) (enzyme)”, in experiment [1], the efficiency of secretion after a 60-min chase (pulse-chase, CHO cells) is 72%.

For “HA-tagged bovine pancreatic RNase expressed in CHO cells (from UniProt P61823 27-150) (enzyme)”, the efficiency of secretion after a 60-min chase (pulse-chase, CHO cells) in experiment [2] came out at 45%.
